Data on 3 molecules can be found in patent US20160039936A1, “FIBROBLAST GROWTH FACTOR RECEPTOR INHIBITION FOR THE TREATMENT OF DISEASE” (UNIVERSITY OF MIAMI, priority 2011, published 2016).

One data set relates to FGFR. Conditions: Mohammadi et al. 1998; Grand et al. 2004; cited from earlier work.
The test system of data set [1] is neonatal mouse ventricular myocytes (NMVM). Nature of the data set: Hypertrophic growth and β-MHC of isolated NMVM (wild-type or FGFR4−/−). Conditions: 48 h. The class given is cell-based. On the procedure: NMVM were isolated enzymatically (Kreusser et al., 2014). Briefly, hearts from 1-3 day-old mice were harvested, minced in PBS/glucose and further digested with collagenase type 2 (0.2% w/v) and DNase (0.05% w/v) on a rotary shaker at 37° C. for 11 minutes. Cells were then released from the tissue by triturating the suspension twice with a standard 10 ml plastic serological pipette, transferred to DF10 medium (Dulbecco's Modified Eagle Medium/Ham's Nutrient Mixture F12 adjusted to 17 mM NaHCO2 containing 2 mM L-glutamine, 1% P/S and 10% FBS), and stored on ice. The remaining tissue was further incubated in PBS/glucose/collagenase/DNase solution on a rotary shaker at 37° C. for 11 minutes. The trituration and incubation steps were repeated 5-7 times until the tissue was completely dissolved. Cells were pelleted at 300 g for 5 minutes, resuspended in DF20 media (Dulbecco's Modified Eagle Medium/Ham's Nutrient Mixture F12 adjusted to 17 mM NaHCO2 containing 2 mM L-glutamine, 1% P/S and 20% FBS), and preplated for 1 hour to eliminate fibroblasts. Remaining cells were counted using a hemocytometer and plated on glass and plastic surfaces, which were coated with laminin (Sigma-Aldrich; 10 μg/ml in PBS) at room temperature for 1 hour prior to plating. For immunofluorescence analysis, 3×10^5 cells were seeded per well on glass coverslips in 24-well plates. For Western blot analyses of total protein extracts, 5×10^6 cells were seeded in 10 cm-culture dishes. Cells were left undisturbed in DF20 medium at 37° C. for 72 hours, starved overnight with DF medium (Dulbecco's Modified Eagle Medium/Ham's Nutrient Mixture F12 adjusted to 17 mM NaHCO2 containing 2 mM L-glutamine, 1% P/S), and treated in DF medium with recombinant FGF23, FGF2 (both at 100 ng/ml) or AngII (1 μM, Sigma-Aldrich) for 48 hours.
HEK293 cells, NRVM or NMVM were treated with growth factors for 30 minutes to analyze activation of signal transduction mediators, or for 48 hours to analyze expression levels of hypertrophic marker proteins. Cells were scraped from 6-well plates using 500 μl CHAPS extraction buffer (20 mM Tris-HCl pH7.5, 500 mM NaCl, 0.5% CHAPS, protease inhibitor cocktail (Roche), protein phosphatase inhibitors [Sigma-Aldrich]) and incubated on ice for 30 minutes. The cell lysate was centrifuged at 14,000 rpm and 4° C. for 30 minutes, and the supernatant boiled in sample buffer and analyzed by SDS-PAGE and immunoblotting. For protein extraction from mouse hearts, tissue was isolated, minced and homogenized in RIPA extraction buffer (50 mM Tris-HCl pH 7.5, 200 mM NaCl, 1% Triton X-100, 0.25% DOC, 1 mM EDTA, 1 mM EGTA, protease and phosphatase inhibitors) at 1:10 (w:v), and protein lysates were prepared as described above.
Cultured cells were fixed in 2% PFA (in 5 mg/ml sucrose) for 5 minutes and permeabilized in 1% Triton X-100 (in PBS) for 10 minutes. We analyzed hypertrophic growth of isolated NRVM and NMVM on laminin-coated glass coverslips after 48 hours of treatment with growth factors. For FGFR4 expression and localization analyses, untreated NMVM from wild-type and FGFR4^−/− mice were immunolabeled. The mouse monoclonal antibody against sarcomeric α-actinin (EA-53; Sigma-Aldrich) was used at 1:1,000, and rabbit polyclonal anti-FGFR4 (C-16; Santa Cruz) at 1:50. Cy3-conjugated goat-anti mouse and Alexa488-conjugated goat-anti rabbit (Jackson Immuno Research) were used as secondary antibodies at 1:300. To visualize nuclei, fixed cells were incubated with 4′,6-diamidino-2-phenylindole (DAPI; 400 ng/ml in PBS) for 10 minutes. Immunofluorescence images were taken on a Leica TCS-SP5 confocal microscope with a 63× oil objective.
Myocyte cross-sectional area was measured based on α-actinin-positive staining using Leica AF6000 fluorescence software. […]

A short description of data set [2]: Pharmacokinetic study of FGF23 in rats. Format: in vivo, rat. On the procedure: High systemic levels of FGF23 results in left ventricular hypertrophy in mice. […] Therefore, we administered FGF23 intravenously to determine if systemically elevated FGF23 levels could also induce LVH. We injected 40 μg/kg of recombinant FGF23 dissolved in 200 μl of PBS into the tail vein of adult wild type mice twice daily for 5 days with eight hours between daily doses. The dose of FGF23 was chosen based on published reports in which a similar dose stimulated ERK phosphorylation and increased Egr-1 expression (Urakawa et al., Nature, 444(7120):770-774, […]). The frequency of injections was chosen based on a pharmacokinetic study of adult wild type rats in which we injected a single dose of 40 μg/kg of FGF23. […] Thus, we estimated that two daily injections of 40 μg/kg would provide elevated FGF23 levels for at least 8 hours per day in mice. Control animals underwent the same injection schedule using 200 μl of PBS alone. On the morning of day 6, blood was collected for assay of FGF23, mice were sacrificed and the hearts examined.

For the molecule `CCN(CC)CCCCNc1ncc2cc(-c3cc(OC)cc(OC)c3)c(NC(=O)NC(C)(C)C)nc2n1` [PD173074], the “phosphorylation of FGFR3 and FGFR4” value in the data set with FGFR is on record as “inhibits”.

B1: FGF2: recombinant mouse FGF2 (Ala11-Ser154) (R&D Systems) (protein)
chain: ALPEDGGAAFPPGHFKDPKRLYCKNGGFFLRIHPDGRVDGVREKSDPHVKLQLQAEERGVVSIKGVCANRYLAMKEDGRLLASKCVTEECFFFERLESNNYNTYRSRKYSSWYVALKRTGQYKLGSKTGPGQKAILFLPMSAKS
For the molecule B1, in data set [1] (immunoblot), the “expression of β-MHC protein in FGFR4−/− NMVM” value is recorded as “induced this effect” and the “expression of β-MHC protein in wild-type NMVM” value was “increased expression”. In data set [1] (FGF 100 ng/ml, AngII 1 μM), the “cross-sectional area (size) of NMVM from FGFR4−/− mice” value is “increase the size” and the “cross-sectional area of wild-type NMVM” value is “significant increases”.

B2: FGF23: recombinant mouse FGF23, 6His-tagged Tyr25-Val251 (Arg179Gln) (R&D Systems) (protein)
chain: YPDTSPLLGSNWGSLTHLYTATARTSYHLQIHRDGHVDGTPHQTIYSALMITSEDAGSVVITGAMTRRFLCMDLHGNIFGSLHFSPENCKFRQWTLENGYDVYLSQKHHYLVSLGRAKRIFQPGTNPPPFSQFLARRNEVPLLHFYTVRPRRHTQSAEDPPERDPLNVLKPRPRATPVPVSCSRELPSAEEGGPAASDPLGVLRRGRGDARGGAGGADRCRPFPRFV
modifications: left off: small tags and cut ends
Take B2: the “expression of β-MHC protein in wild-type NMVM” value in data set [1] (immunoblot) is recorded as “increased expression”. The “cross-sectional area of wild-type NMVM” value in data set [1] (FGF 100 ng/ml, AngII 1 μM) is recorded as “significant increases”. The “half-life of circulating FGF23” value in data set [2] (adult wild type rats, single dose of 40 μg/kg) amounted to 30 min. For the same molecule, the plasma levels result in data set [2] (rats, single dose 40 μg/kg, four hours post injection) is given as “remained elevated above baseline”.
